In the DeepSol protein solubility set:

Test: soluble on expression in E. coli; label from the status in PepcDB or PDB records

Sequence | soluble on expression in E. coli
MSQGHRDAGAAACRTIIVTNHCPPIMRKRDIWRVDQFHLLRKVGSGYASTVYLGTCRTSGNQVAVKLYHKQKLSELNHFQVAREITIHSSLDHKNIIQLWAAFEDQYGIYLVFEYASKGDVFTEVERRGGQLDEAETVRAVVYPFLSALDYLHSRCIIHRDIKPENLLFTATGVLKVADFGLSINFSQERPVTRVGTLDYMAPEVVVCPDKHRPQDHKELKHLHYTPLVDAWAVGVLAYELIVGRPPFDKGQKKATIAEILNSEPFIPPWLSEGATHFIRWSLTKEVGKRPSVQQLAEHPWIVSHMKQSVLAPARRQLVKTDSFVEPRQLGFRGSNAPGAGEPSGPSKEPPRPLQVSSVAQGGRFLGHSSSMSAMDGMRYRDIHLDSVTGGMASAATEALKSVKRVSDGDGTTGGRPSAAGGRVSRAGTARNSGTGQAPLSRMNSMSAQAVVAAAAAAMASGSFGGAAHGSEDSPKGGRALTREELYASLTAPLGGRGSPVLARSFTAGRASPAPQQMAPLPTNAGRKSGGGGLGSGRSSLSGQATGAPPSRGAAELAHDLSRLRVDSAASGGGGAAGPSTSASGAVPYSPGKGSSGIRPSPPQAPSPTARGLRTGSPLIPSRLSQSFTSPVSPLAAGSNASAGTPHLSRLGKTSNSGIVPAVATANTPGSARPPAGMDAHSSAASSAAAAGAQSSPHQPAAAAAGSSLTVSTTPASPGGSSGYGQTRASPRELPGERDPELEDSEVEDEPETERSPSKSKSLFKKIFS | not soluble
MTETEQTTAPIYPLKRNWTWWYLNDERNKSWEDRLKKVYTFNTVSEFWALYDAIRPPSGLNALCDYNVFRDDIQPMWEVPENSNGGRWLIVIDKGKTPEMVDAIWLEILMALVGEQFGKDMESICGLVCNVRGKGSKISVWTKDCNDDETNMRIGVVLKEKLMAASKDHSKPLFDVIRYEDHESCQKKTSSVVKAKLSLHSSDAPVAEKSAV | not soluble
MGSDKIHHHHHHMADQTESVSGVNVDQAELQKFAELAHKWWDKNSEFKPLHEINPLRLNYIDEHAGLAGKRVLDVGCGGGILSESMSERGAEVTGIDLGEKALKVAKLHQYESSAKVDYRLISVEELAQESPESFDIVTCMEMLEHVPDPAAIVRACARLTKPGGKVFFSTINRNPKAYLFAVLGAEYVLNLLPRGTHEYEKFIKPSELAGWARAAGLDVIASKGMGYNPLTKRYKLNNDVSVNYILQTVK | not soluble
MGSDKIHHHHHHMADNFLSQEEVDALLRGVTNEQEDDTPALDPAGVREYNLATQERIVRGRMPTLEIINERFARLLRIGLFNFLRRTTEVSVGPVKISKYSEFIRNLVVPTNLNLVQMKPLRGTALMVFDPTLVFLIVDNLFGGDGRFHTRVEGRDFTQTEQRIIQRVLAIVFETYAKSWEPVYKLEFEYIRSEMNTQFANIATPNEVVVSTTFNIELGSASGEIHFCFPYSMIEPIRDLLTSPLQGEALGVDKRWVRLMTQQIQSAEVMLIADLAKAEMTLGDILNMKVGDVIPLSISEEIEAKVDNVPVMQCKYGVFNGQYALRVEKLLRSNSSEYVKGEVPDGD | not soluble
MGSDKIHHHHHHMIIEELHIVNFKSIAAADCRFSPKVNCLVGNNGMGKTNLLDALHFLSFCRSHLSVPDNMVVRHGEEMALLQGLYRDESGDGIELLLSIRPGKHKVLRRNKKEYERLSDHIGRFPLVIVSPQDYQLILGGSDERRRFMDQQLCQQDPRYLSALIQYNRHLQQRNTMLKQDRHDDALMDVLELQMGSYAAEICNKRSRFIEDFLPVFNDLYSDISGSAEKVSLSYRSHLADGIPLEELLRRSRPKDYLLGFSSCGVHKDELEMLLGGVLIRKIGSEGQNKTFLISMKLAQFRHQQLHGDETPILLLDDIFDKLDATRVERIIRLVGGNGFGQIFITDTNRKNLDEIIASWSEDYRLFKIENGQIFQ | not soluble
SYSSAFAQAASSSLATSSAISRAFASVSSASAASSLAYNIGLSAARSLGIASDTALAGALAQAVGGVGAGASASAYANAIARAAGQFLATQGVLNAVNASSLGSALANALSDSAANSAVSGNYLGVSQN | soluble
VETASLDVYAKYVLRSICQQEWVGERCLKSLCEDSNDLQDPVLSSAQAQRLMQLICYPHRLLDNEDGENPQRQRIKRILQNLDQWTMRQSSLELQLMIKQTPNNEMNSLLENIAKATIEVFQRSAETGSSSGSTASNMPSSSKTKPVLSSLERSGVWLVAPLIAKLPTSVQGHVLKAAGEELEKGQHLGSSSRKERDRQKQKSMSLLSQQPFLSLVLTCLKGQDEQREGLLTSLYSQVHQIVN | not soluble
VTVRMDPQRFDELVSDALDLIPPELADAMDNVVVLVANRHPQHENLLGQYEGVALTERGSDYAGSLPDAITIYREALLDACDSEDEVVDQVAITVIHEVAHHFGIDDERLDQLGWRDEPAPGRGNPDLSAPDAMNGP | soluble
VDYSRTETLQFEDDEYYYYVKAVPKVGVTLPEKQVKHITEPHEEQPKEAKAAVNLKPEPMVQETVAIDTSQIQEADLEKNVDELLLTQSLNEELRQNQNEPEDDLSLTKSLGDLWTKKPGSGE | not soluble
MAREATIARTTNETSIQLSLSLDGEGKAELETGVPFLTHMLDLFAKHGQFDLYIEAKGDTHIDDHHTTEDIGICLGQAIKEALGDKKGIKRYGNAFVPMDDALAQVVIDLSNRPHFEFRGEFPATKVGAFDVELVHEFLWKLALEARMNLHVIVHYGRNTHHMIEAVFKALGRALDEATMIDPRVKGVPSTKGML | not soluble
MSLQLDEYLRQLAPSMTQWRRDFHLHAESGWLEFRTASKVADILDGLGYQLALGRDVIDADSRMGLPDEETLARAFERAREQGAPERWLPAFEGGFAGVVATLDTGRPGPTLAFRVDMDALDLNEQHDDSHRPHRDHFASCNAGMMHACGHDGHTAIGLGLAHVLKQYAAQLNGVIKLIFQPAEEGTRGARAMVAAGVVDDVDYFTAIHIGTGVPAGTVVCGGDNFMATTKFDVQFSGVAAHAGGKPEDGRNALLAAAQAALGLHAIPPHSAGASRVNVGVMQAGTGRNVVPSSALLKVETRGESEAINQYVFERAQHVVAGAAAMYEARYELRMMGAATASAPSPAWVDYLREQAARVPGVQQAVDRIAAPAGSEDATLMMARVQARGGLASYMIFGTELSAGHHNEKFDFDESVMAVAVETLARVALNFPWQRGVEGHHHHHH | soluble
METSTIIDGGTSFVIDSEKKTITIYVKTADGSSVKAEGCTETVIESGTESTLNIKSSLIILKGNIIEFNCGGDPYTYGNQIKSLNVQGLKNLEKLNCSGNRLTELNIEGLNNLKELACRYNRLSSLDVAHLPALEFLWCTANLLTDLNLTGMSSLKRLGCNNNKLEVLNLEGLTSLEHLWCGNNLLNKLNLTDLKSLTGLNCEKNKLTELDLTGLTALEHLWCSKNLLTKLNLTKALHLQSLDCSSNMLTELNTEELNDLQYLNSSGNCLPLS | not soluble
DVETCRDERCYRLWINSLGIDSYVNNVFEDVRNGWILLEVLDKVSPSSVNWKHASKPPIKMPFRKVENCNQVIKIGKQLKFSLVNVAGNDIVQGNKKLILGLLWQLMRFHMLQLLKSLRSEMTDADILSWANRKVRTMGRKLQIESFKDKSLSSGLFFLNLLWAVEPRVVNWNLVTKGETDDEKRLNATYIVSVARKLGCSVFLLPEDIVEVNQKMILILTASIMYWSLQR | soluble
MNMNKETHICALCERKVPKITEHHLIPREKGGRFDETTWLCVPCHKQVHALYSNYELAVRLNSLPRLKDDEKIKRYLKFIKKQPGDANVTIKKSKAIRKKGRYLEHHHHHH | not soluble
MSLIQTIENRLINGGELTLEEALLLASSADKEALYEAAHRITRYFMGDKFDTCSIINAKSGNCPEDCKWCAQSRHYAASIEKYGLLSAAVCAEQAAYNRRQGIGRFSLVASGRTASMNEIRQMAESYRAIKQRTDIKCCASLGLLSEEKLQILFDNGVTTYHCNMETAPSFFPSLCSTHTQDEKLATIRAARRVGMRVCSGGIIGMGETMEQRIEFAFYLHSINVYSIPINILQPIPGTPLERTLPLSEEEYLTTVALFRLINPRAFLRFSGGRAQLSPAVQRKAIYIGINAAITGDLLTTTGSKAAEDMQLVRECGFQVTNDTDWEVSYDHEGHHHHHH | not soluble
PLGSQTTHELTIPNNLIGCIIGRQGANINEIRQMSGAQIKIANPVEGSSGRQVTITGSAASISLAQYLINARLSSEKGMGCS | soluble
